{"source": "paper PMC4789653", "about": "“Atomic visualization of a flipped-back conformation of bisected glycans bound to specific lectins” (Scientific Reports, 2016)", "proteins": {"B1": {"name": "phytohemagglutinin from Phaseolus vulgaris (PHA-E) (natural protein, UniProt P05088 22-275, looked up)", "chain": "ASQTSFSFQRFNETNLILQRDATVSSKGQLRLTNVNDNGEPTLSSLGRAFYSAPIQIWDNTTGAVAASPTSFTFNIDVPNNSGPADGLAFVLLPVGSQPKDKGGLLGLFNNYKYDSNAHTVAVEFDTLYNVHWDPKPRHIGIDVNSIKSIKTTTWDFVKGENAEVLITYDSSTKLLVASLVYPSLKTSFIVSDTVDLKSVLPEWVIVGFTATTGITKGNVETNDILSWSFASKLSDGTTSEALNLANFALNQIL", "notes": "erythroagglutinating phytohemagglutinin (PHA-E), legume lectin from Phaseolus vulgaris; 120 kDa as tetramer; Crystallised with bisected glycan 2; eight subunits in the asymmetric unit; also called E4-PHA; PHA-E lectin; source: purified from Phaseolus vulgaris; bought: J-Oil Mills"}}, "target": "the molecule itself", "assay": "crystal structure; PHA-E (9 mg/ml, 20 mM Tris-HCl pH 8.0, 100 mM NaCl) with 0.6 mM bisected glycan 2; crystals from 0.1 M sodium acetate pH 4.5, 25% PEG3,350, 20 °C; 3.0 Å"}
{"protein": "B1", "values": [{"measurement": "stoichiometry N", "result": 4}]}
